T1: human ALK2 extracellular domain with C-terminal His tag (E. coli) (human, UniProt Q04771 21-123)
T1 construct: Expressed in E. coli SHuffle T7, purified to a single band of 12 kDa; also called ALK2-ECD; human ALK2-ECD; not shown: C-terminal His tag from pET-28b(+)
T1 sequence: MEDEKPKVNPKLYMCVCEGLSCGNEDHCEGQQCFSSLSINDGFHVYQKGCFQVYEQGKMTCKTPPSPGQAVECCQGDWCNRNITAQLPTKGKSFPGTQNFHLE


Target: T1, human ALK2 extracellular domain with …
Test: SPR, Biacore T200; antibody captured by anti-human IgG (Fc), antigen as analyte; 1:1 binding model
Protocol: The dissociation constants of humanized hA2-15A-H4/L6 (IgG2) prepared in Example 11)-4, and humanized hA2-27D-H2/L2 (IgG1 LALA) and humanized hA2-27D-H3/L4 (IgG1 LALA) prepared in Example 12)-4 for the antigen (human ALK2 extracellular domain prepared in Example 14)-1) were measured using Biacore T200 (GE Healthcare Bio-Sciences Corp., Japan) by the capture method which involves capturing each antibody as a ligand onto an immobilized anti-human IgG (Fc) antibody and assaying the antigen as an analyte. Approximately 1000 RU of the anti-human IgG (Fc) antibody (Human Antibody Capture kit, GE Healthcare Bio-Sciences Corp.) was covalently bound to a sensor chip CM5 (GE Healthcare Bio-Sciences Corp.) by the amine coupling method. Similarly, this antibody was immobilized onto a reference cell. The running buffer used was HBS-EP+(10 mM HEPES (pH 7.4), 0.15 M NaCl, 3 mM EDTA, and 0.05% Surfactant P20). The antibody was added onto the anti-human IgG (Fc) antibody-immobilized chip for approximately 1 minute. Then, serially diluted solutions (0.78 to 200 nM) of the antigen were added thereto at a flow rate of 30 μl/min for 300 seconds. Subsequently, the dissociation phase was monitored for 600 seconds. A 3 M magnesium chloride solution was added thereto as a regenerating solution at a flow rate of 10 μl/min for 30 seconds. The data was analyzed using 1:1 binding models of analytical software (BIAevaluation software, version 1.0) to calculate an association rate constant ka, a dissociation rate constant kd, and a dissociation constant (KD; KD=kd/ka).

Row | Kd [nM] | Binder
1 | 17.4 | humanized hA2-15A-H4/L6 (IgG2) (antibody, Human IgG2, kappa; also called humanized A2-15A-H4/L6 (IgG2); humanized A2-15A antibody (IgG2)) heavy: EVQLVESGGGLVQPGGSLRLSCAASGFTFSHYYMAWVRQAPGKGLEWVASITNSGGSINYRDSVKGRFTISRDNAKSTLYLQMNSLRAEDTATYYCTREGGENYGGYPPFAYWGQGTLVTVSSASTKGPSVFPLAPCSRSTSESTAALGCLVKDYFPEPVTVSWNSGALTSGVHTFPAVLQSSGLYSLSSVVTVPSSNFGTQTYTCNVDHKPSNTKVDKTVERKCCVECPPCPAPPVAGPSVFLFPPKPKDTLMISRTPEVTCVVVDVSHEDPEVQFNWYVDGVEVHNAKTKPREEQFNSTFRVVSVLTVVHQDWLNGKEYKCKVSNKGLPAPIEKTISKTKGQPREPQVYTLPPSREEMTKNQVSLTCLVKGFYPSDIAVEWESNGQPENNYKTTPPMLDSDGSFFLYSKLTVDKSRWQQGNVFSCSVMHEALHNHYTQKSLSLSPGK light: DIVLTQSPDSLAVSLGERATINCRANQGVSLSRYNLMHWYQQKPGQKPKLLIYRSSNLAQGIPARFSGSGSGTDFTLTISSVQADDIAVYYCQQSRESPFTFGQGTKLELKRAVAAPSVFIFPPSDEQLKSGTASVVCLLNNFYPREAKVQWKVDNALQSGNSQESVTEQDSKDSTYSLSSTLTLSKADYEKHKVYACEVTHQGLSSPVTKSFNRGEC
2 | 13.6 | humanized hA2-27D-H2/L2 (IgG1 LALA) (antibody, also called humanized A2-27D-H2/L2 (IgG1 LALA); humanized A2-27D antibody (LALA)) heavy: not shown light: EIVLTQSPGTLSLSPGERATLSCLASSSVSYMTWYQQKPGQSPRLWIYGTSNLASGVPDRFSGSGSGTDFTLTISRLEPEDFAVYYCLHLTSYPPYTFGQGTKVEIKRAVAAPSVFIFPPSDEQLKSGTASVVCLLNNFYPREAKVQWKVDNALQSGNSQESVTEQDSKDSTYSLSSTLTLSKADYEKHKVYACEVTHQGLSSPVTKSFNRGEC
3 | 13.3 | humanized hA2-27D-H3/L4 (IgG1 LALA) (antibody) heavy: not shown light: EIVLTQSPGTMSASPGERVTLSCLASSSVSYMTWYQQKPGASPRLWIYGTSNLASGVPDRFSGSGSGTDYTLTISRMEPEDFATYYCLHLTSYPPYTFGAGTKLELKRAVAAPSVFIFPPSDEQLKSGTASVVCLLNNFYPREAKVQWKVDNALQSGNSQESVTEQDSKDSTYSLSSTLTLSKADYEKHKVYACEVTHQGLSSPVTKSFNRGEC
